Measured values as given in patent US20140271629A1 (Amgen, published 2014).

T1: huCHRDL-1-DEVD-6xHis (human, UniProt Q9BU40 28-456)
T1 construct: also called Human CHRDL-1
T1 sequence: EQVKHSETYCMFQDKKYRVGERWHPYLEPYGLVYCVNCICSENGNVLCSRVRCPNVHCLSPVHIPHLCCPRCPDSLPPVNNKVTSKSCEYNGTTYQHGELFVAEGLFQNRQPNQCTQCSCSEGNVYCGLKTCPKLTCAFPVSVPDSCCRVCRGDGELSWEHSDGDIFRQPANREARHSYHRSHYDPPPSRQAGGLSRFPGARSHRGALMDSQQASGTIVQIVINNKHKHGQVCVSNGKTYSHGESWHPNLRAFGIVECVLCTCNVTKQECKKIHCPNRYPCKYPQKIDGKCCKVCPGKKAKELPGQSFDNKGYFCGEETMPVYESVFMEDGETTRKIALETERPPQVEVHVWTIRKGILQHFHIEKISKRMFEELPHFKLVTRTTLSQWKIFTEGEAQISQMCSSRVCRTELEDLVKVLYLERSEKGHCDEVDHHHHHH

B1: huz-LC2G2.2_LC/huz-bmHC2G2.2_eflsIgG1 (antibody, V domains shown)
VH: QVQLVQSGAEVKKPGASVKVSCKASGYTFTSYWMHWVRQAPGQGLERMGNINPSNGGTNYNEKFKSRVTMTVDKSSSTAYMELSSLRSEDTAVYYCARSKNNYVAYYFDYWGQGTLVTVSS
VL: DIQMTQSPSSLSASVGDRVTITCRASENIYYSLAWYQQKPGKAPKLLIYNANSLEDGVPSRFSGSGSGTDFTLTISSLQPEDFATYYCKQAYDVPLTFGQGTKLEIKR
notes: also called huz-2G2.2-A; Huz-2G2.2-A

Legend:
[1] = biological target: Human BMP4 (R&D Systems cat#314-BP) (human) (UniProt P12644); assay: cell-based or functional assay
Chain of Human BMP4 (R&D Systems cat#314-BP) (human) (P12644 293-408 limits assumed): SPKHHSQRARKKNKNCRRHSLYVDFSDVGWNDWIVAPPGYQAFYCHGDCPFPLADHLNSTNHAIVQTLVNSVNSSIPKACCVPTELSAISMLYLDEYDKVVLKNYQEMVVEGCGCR

huCHRDL-1-DEVD-6xHis = biological target: T1, huCHRDL-1-DEVD-6xHis; assay: KinExA, solution equilibrium, huCHRDL-1-coated beads
Experimental: Binding of the various anti-CHRDL-1 antibodies to huCHRDL-1-DEVD-6xHis was performed using KinExA technology. The huCHRDL-1 protein was coated onto Reacti-Gel™ 6X (Pierce Biotechnology, Inc., Rockford, Ill.) agarose beads at a concentration of 50 ug protein/mL of beads in 50 mM Na₂CO₃ pH 9.6 for approximately 18 hours at 4° C. The coated beads were then blocked with 1 mg/mL BSA (Sigma-Aldrich, St. Louis, Mo.) in 1 M Tris-HCl, pH 7.5 for 2 hours at 4° C. Antibodies at fixed concentrations were mixed with varying concentrations of huCHRDL-1 in PBS containing 0.1 mg/mL BSA and 0.005% polysorbate 20 (P-20, BIAcore, Inc., Piscataway, N.J.) for at least 12 hours at room temperature. Antibody concentrations were 10 pM, 30 pM, 100 pM and/or 300 pM as appropriate. […] Antibody bound to the beads was quantified using fluorescent DyLight 649-conjugated goat anti-murine IgG (H+L) antibody (Jackson ImmunoResearch, West Grove, Pa.) at 1 ug/mL in Super Block (Pierce Biotechnology, Inc., Rockford, Ill.) for the mouse antibodies, or using AlexaFluor™ 647-conjugated goat anti-human IgG (H+L) at 1 ug/mL for the humanized antibody. […] The dissociation equilibrium constant (KD) can be determined from nonlinear regression analysis of the competition curves using a multiple curve one-site homogeneous binding model provided in the KinExA Pro software (Sapidyne Instruments, Inc., Boise, Id.).

| Molecule | RLU mean, BRE-luciferase reporter in MC3T3-E1-BRE-Luc cells stimulated with BMP4 (TSG present) [1] [RLU] | reduction of RLU mean, BRE-luciferase reporter in MC3T3-E1-BRE-Luc cells stimulated with BMP4 (TSG present) [1] [%] | Kd (huCHRDL-1-DEVD-6xHis) [pM] |
| --- | --- | --- | --- |
| Recombinant human CHRDL-1 (R&D Systems cat#1808-NR), Glu22-Cys450 with C-terminal 10xHis tag (from UniProt Q9BU40 28-456) | 62 | 89 |  |
| muCHRDL-1-DEVD-6xHis (from UniProt Q920C1 23-447) | 254 | 55 |  |
| B1 |  |  | 142 |
